Values joined by “and” are separate entries in the source; they are usually repeats but may differ in a detail not shown here. Equal entries are not always repeated. “Also recorded” adds a separate entry of the source. Each block holds one molecule with its values, some of them ahead of it.
Experiments:
human A2aR [1] = biological target: T1, human A2aR (Homo sapiens, UniProt P29274); assay: FACS screening of hybridoma clones on human A2aR-expressing Expi293 cells; assay type: binding; details: antibodies from hybridoma clones
T1 construct: expressed in transfected cells; host or cells: Expi293
T1 sequence (P29274 whole entry): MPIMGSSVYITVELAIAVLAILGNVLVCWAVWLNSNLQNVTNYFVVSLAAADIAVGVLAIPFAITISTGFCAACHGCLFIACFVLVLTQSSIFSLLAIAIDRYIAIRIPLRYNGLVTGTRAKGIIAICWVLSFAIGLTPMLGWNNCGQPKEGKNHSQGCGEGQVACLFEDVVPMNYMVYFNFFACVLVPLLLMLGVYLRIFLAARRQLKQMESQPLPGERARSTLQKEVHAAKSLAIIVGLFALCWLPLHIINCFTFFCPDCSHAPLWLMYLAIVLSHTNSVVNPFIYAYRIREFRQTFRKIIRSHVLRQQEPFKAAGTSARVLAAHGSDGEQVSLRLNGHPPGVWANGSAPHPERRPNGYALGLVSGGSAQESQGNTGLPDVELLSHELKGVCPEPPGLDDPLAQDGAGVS
Description: Serum titration was performed using Fluorescence-Activated Cell Sorting (FACS) pursuant to standard procedures. Human A2aR-expressing Expi293 cells were first added to 96-well plate (1×10^5 cells per well), 50 μl of serial diluted serum (1:50, 1;150, 1:450, 1:[…], 1:12150) from each individual mouse was incubated with cells for 30 min. on ice. After washing with FACS buffer (2% Fetal bovine serum, 2 mM EDTA in PBS), Alex Fluor 647-conjugated anti mouse IgG was added and incubated for 20 min on ice. Cells were resuspending with 100 μl FACS buffer after two times wash and ready for FACS analysis (BD LSR II Flow Cytometer, HTS). […] (MFI: mean fluorescence intensity).
Primary screening of the hybridoma supernatants in the 96-well plates was performed using the same FACS procedure as described for serum titration except following changes: 1) Human A2aR-expressing Expi293 cells (expressing GFP) were mixed at 1:1 ratio with parental Expi293 (no A2aR expression) and added to 96-well plates (2×10^5 cells per well), 2) 50 μl hybridoma supernatant transferred from each well of 96-well plates was incubated with cells for 30 min. on ice.
Sub-cloning was performed by limiting dilution method. In short, the positive wells identified by FACS were seeded into 96-well plate at an average density of 1 cell/well. The […] was placed in incubator for 7-10 days to allow the growth of the cells. The growth of cells was monitored periodically. At about day 4, the wells on the plate were observed under phase contrast microscopy and the wells which appeared to have single colony growing (i.e., only one clumping of hybridomas) were recorded. The cells from the single colony wells were screed by FACS using the same procedure as described for primary screening of hybridoma when the confluence of the cell reached about 50%.

[2] = tested on: HEK293T cell without exogenous adenosine receptor; assay: flow cytometry-based cell-binding assay, parental HEK293T; parameters: species or system human; details: duplicate
Description: (§1) To test the specificity of the antigen binding molecules of the invention, e.g., anti-A2aR antibodies or antigen binding fragments thereof to human A2aR and not towards any of the other 3 adenosine receptor family members, a flow cytometry-based cell-binding assay was performed by Multispan Inc (Hayward, CA). HEK293T cells stably expressing various adenosine receptors, i.e., human A1R, A2bR, and A3R, and mouse A2R, generated by Multispan Inc and HEK293T parental cell lines were used in the assay. Briefly, adenosine receptor-overexpressing cell lines and HEK293T parental cell lines were incubated with 2, 10, and 50 nM of anti-human A2aR monoclonal antibodies (clones 1B5-3D7 and 3F6-9G5) and 10 and 50 nM of mouse IgG2a Isotype control at 4° C. in the dark for 60 minutes. Anti-FLAG antibody (Abcam, ab72469, 2 μg/mL) was used as positive control for cell lines over-expressing various adenosine receptors, respectively. After 3 washes with FACS buffer (PBS plus 0.1% BSA and 0.2% sodium azide), cells were stained with an anti-mouse-IgG-PE (Invitrogen, cat. P852) detection antibody for 45 minutes at 4° C. The cells were then washed 3 times with FACS buffer and analyzed on FACSort (Becton Dickinson). Data was analyzed using CellQuest Pro (Becton Dickinson).

human A2aR [3] = biological target: T1, human A2aR; assay: FACS binding titration on hA2aR-Expi293 cells; details: 12-point 1:2 serial dilution starting from 7.5 ug/ml
Description: Human A2aR-expressing Expi293 cells or parental Expi293 cells were first added to 96-well plate (1×10^5 cells per well). Fifty microliters (50 μl) of 12-point 1:2 serial diluted samples starting from 7.5 ug/ml for each antibody was incubated with cells for 30 minutes on ice. After being washed with FACS buffer (2% Fetal bovine serum in DPBS), […] of Alex Fluor 633-conjugated anti mouse IgG (Life technology, Cat.A21050) or Alex Fluor 647-conjugated anti-human IgG was added and incubated for 30 minutes on ice. Cells were resuspended with 100 μl of FACS buffer after two washes. One hundred microliters 100 μl of 1:50 diluted 7-AAD for live/dead staining was added to the cell suspension, which was ready for FACS analysis (BD Accuri C6 plus or LSR II Flow Cytometer, HTS).

[4] = biological target: T2, human adenosine receptor A2A (Homo sapiens, UniProt P29274); assay: flow cytometry-based cell-binding assay, HEK293T-A2A; details: for Geo Mean: HEK293T-A2A, duplicate; for binding to human A2aR (in words): summary of Table 12
T2 construct: FLAG
T2 sequence (P29274 whole entry): as above
Description: as §1

[5] = biological target: T3, mouse adenosine receptor A2A (mouse, UniProt Q60613 1-410); assay: flow cytometry on HEK293T cells stably expressing mouse A2aR
T3 construct: whole, on cells; the tag is not described; also called mouse A2aR; mouse A2R
T3 sequence (Q60613 whole entry): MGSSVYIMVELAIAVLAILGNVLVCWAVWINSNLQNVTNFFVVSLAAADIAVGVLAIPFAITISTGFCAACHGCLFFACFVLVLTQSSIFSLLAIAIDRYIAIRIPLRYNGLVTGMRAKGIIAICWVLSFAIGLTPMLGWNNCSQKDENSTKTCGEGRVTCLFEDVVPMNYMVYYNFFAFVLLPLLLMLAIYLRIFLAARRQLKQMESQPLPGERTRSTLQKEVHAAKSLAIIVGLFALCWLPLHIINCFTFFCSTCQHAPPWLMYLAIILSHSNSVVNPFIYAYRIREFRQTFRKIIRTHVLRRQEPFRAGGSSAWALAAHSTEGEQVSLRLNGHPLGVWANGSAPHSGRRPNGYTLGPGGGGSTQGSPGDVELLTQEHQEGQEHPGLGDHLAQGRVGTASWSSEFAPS

[6] = biological target: human adenosine A2A receptor (A2aR) (human, UniProt P29274 1-412); assay: cell-based or functional assay
Sequence of human adenosine A2A receptor (A2aR) (P29274 whole entry): as the sequence (P29274 whole entry) above

[7] = biological target: T4, human adenosine receptor A3 (human, UniProt P0DMS8 1-318); assay: flow cytometry on HEK293T cells stably expressing human A3R
T4 construct: whole, on cells; the tag is not described; also called A3R; human A3R
T4 sequence (looked up): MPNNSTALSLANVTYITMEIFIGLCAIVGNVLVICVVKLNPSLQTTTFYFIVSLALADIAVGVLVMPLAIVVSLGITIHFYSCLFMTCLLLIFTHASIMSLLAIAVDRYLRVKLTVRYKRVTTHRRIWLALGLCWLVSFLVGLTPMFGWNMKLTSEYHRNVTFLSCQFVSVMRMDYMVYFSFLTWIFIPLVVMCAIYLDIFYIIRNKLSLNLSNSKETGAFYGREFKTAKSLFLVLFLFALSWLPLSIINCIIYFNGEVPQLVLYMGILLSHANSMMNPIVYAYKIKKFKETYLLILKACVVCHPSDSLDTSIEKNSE

B1: 3F6-9G5: anti-human A2aR monoclonal antibody from mouse hybridoma clone; HCVR SEQ ID NO: 36, LCVR SEQ ID NO: 42 (antibody, V domains shown)
VH: QVQLQQPGTELVKPGAPVRLSCKASGFAFTSYWMNWVRQRPGRGLEWIGRIDPSDSEAHYHHKFWGKATLTVDKSSSTVYIQLNGLTSEDSAVYYCLRSLYGKGDYWGHGTTLTVSS
VL: DVLMTQTPLSLSVRLGDQASISCRSSQSLVHRNGNTYLEWYLQRPGQSPKLLIYKVSNRFSGVPDRFSGSGSGTDFTLKISRVEAEDLGVYYCYQGSHVPLTFGSGTKLEIK
binding to human A2aR-expressing cells (FIG. 2) (human A2aR [1]): specific binding
Geo Mean ([2]; 2 nM): 3.98 and 4.33
Geo Mean ([2]; 10 nM): 4.01 and 4.27
Geo Mean ([2]; 50 nM): 4.19 and 6.16
binding to hA2aR-Expi293 (FIG. 5) (human A2aR [3]): strong dose-dependent specific binding; also recorded: specifically binds
Geo Mean ([4]; 2 nM): 112.47 and 109.2
Geo Mean ([4]; 10 nM): 273.51 and 290.29
Geo Mean ([4]; 50 nM): 270 and 289.37
binding to human A2aR (in words) [4]: specifically bound to human A2aR

binding to human A2aR-expressing cells (FIG. 2) (human A2aR [1]): specific binding
IC50 (M), cAMP-Glo assay of NECA-induced cAMP in HEK293 cells stably expressing human A2aR [6]: 4.48e-09 M
Geo Mean ([4]; 2 nM): 97.49 and 95.04
Geo Mean ([4]; 10 nM): 261.79 and 221.91
Geo Mean ([4]; 50 nM): 260.67 and 377.56
binding to human A2aR (in words) [4]: specifically bound to human A2aR
B2: anti-human A2aR monoclonal antibody 1B5-3D7 (antibody, V domains shown)
VH: QVQLQQPGTELVKPGAPVKLSCKTSGFTFTRFWMNWVRQRPGRGLEWIGRIDPYDSETQYNHKFWDRATLTVDKSSSTVYIQLSSLTSEDSAVYYCGRSLYGKGDYWGQGTTLTVSS
VL: DVLMTQSPLSLPVSLGDQASISCRSSQSIVHSNGNTYLEWYLQRPGQSPKLLIYKVSNRFSGVPDRFSGSGSGTYFTLRISRVEAEDLGIYYCFQGSHVPLTFGSGTTLELK
notes: Tested as whole mouse IgG2a / kappa, purified from hybridoma supernatant or made recombinantly in Expi293 cells; also called 1B-3D7
binding result [5]: no binding (tested: 2, 10 and 50 nM tested)
Geo Mean ([2]; 2 nM): 3.69 and 4.11
Geo Mean ([2]; 10 nM): 5.42 and 4.07
Geo Mean ([2]; 50 nM): 5.24 and 4.96
binding result [7]: no binding (tested: 2, 10 and 50 nM tested)
binding to hA2aR-Expi293 (FIG. 5) (human A2aR [3]): strong dose-dependent specific binding; also recorded: specifically binds

Reference: patent US20230340132A1, “ANTI-ADENOSINE RECEPTOR (A2aR) ANTIBODIES” (NA Biotech Corp, priority 2020, published 2023)
